Changes are numbered by the printed parent chain. Names and notes keep the numbering of the source.
T1: PUF4 RNA-binding domain (Saccharomyces cerevisiae, UniProt P25339 537-888)
T1 sequence: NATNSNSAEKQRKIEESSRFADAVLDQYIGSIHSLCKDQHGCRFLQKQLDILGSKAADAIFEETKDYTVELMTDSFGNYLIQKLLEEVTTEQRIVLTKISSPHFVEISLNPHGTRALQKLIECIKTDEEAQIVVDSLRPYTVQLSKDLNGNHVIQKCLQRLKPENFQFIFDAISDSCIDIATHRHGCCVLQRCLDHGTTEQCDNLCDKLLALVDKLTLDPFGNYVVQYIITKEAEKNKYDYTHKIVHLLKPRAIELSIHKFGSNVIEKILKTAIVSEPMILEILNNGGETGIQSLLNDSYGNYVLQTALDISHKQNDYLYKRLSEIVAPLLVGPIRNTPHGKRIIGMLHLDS

B1: Id_ii_S2_P5E.2_K5.1_C5.2_[C-2G]_[T-1C]_H5.1_A5.1_F5.1_T5.2_[T11A]_[A12C] (ssRNA)
RNA: UUUGAUUAAUAUGAUAUCGUUCUUUCUGCUGUAUUAUUAACUUCUUUCUCGAUAUCAUAUUAAUCUUU
B2: Id_ii_S2_P5E.2_K5.1_C5.2_[C-2G]_[T-1C]_H5.1_A5.1_F5.1_T5.2_[T11A]_[A12T] (ssRNA)
RNA: B1 RNA with C41U
B3: Id_ii_S2_P5E.2_K5.1_C5.2_[C-2G]_[T-1C]_H5.1_A5.1_F5.1_T5.2_[T11A] (ssRNA)
RNA: B1 RNA with C41A
B4: Id_ii_S2_P4E.4_K4.3_C4.2_[C-2A]_[T-1A]_H4.3_A4.1_F4.1_T4.2_[G10T]_[T11C] (ssRNA)
RNA: UUUGAUUAAUAUGAUAUCGUUCUUUCUAAACACUAUUAUCUUCUUUCUCGAUAUCAUAUUAAUCUUU
B5: Id_ii_S2_P4E.4_K4.3_C4.2_H4.3_A4.1_F4.1_T4.2_[T11C] (ssRNA)
RNA: B4 RNA with A28C, A29U, U39G
B6: Id_ii_S2_P4E.4_K4.3_C4.2_H4.3_A4.1_F4.1_T4.2_[G10C]_[T11A] (ssRNA)
RNA: B4 RNA with A28C, A29U, U39C, C40A
B7: Id_ii_S2_P4E.4_K4.3_C4.2_[C-2A]_H4.3_A4.1_F4.1_T4.2_[G10C]_[T11C] (ssRNA)
RNA: B4 RNA with A29U, U39C
B8: Id_ii_S2_P4E.4_K4.3_C4.2_[T-1A]_H4.3_A4.1_F4.1_T4.2_[G10A]_[T11C] (ssRNA)
RNA: B4 RNA with A28C, U39A
B9: Id_ii_S2_P4E.4_K4.3_C4.2_[T-1G]_H4.3_A4.1_F4.1_T4.2_[G10A]_[T11C] (ssRNA)
RNA: B4 RNA with A28C, A29G, U39A
B10: Id_ii_S2_P4E.4_K4.3_C4.2_[C-2A]_H4.3_A4.1_F4.1_T4.2_[G10T] (ssRNA)
RNA: B4 RNA with A29U, C40U
B11: Id_ii_S2_P4E.4_K4.3_C4.2_[T-1A]_H4.3_A4.1_F4.1_T4.2_[T11C] (ssRNA)
RNA: B4 RNA with A28C, U39G
B12: Id_ii_S2_P4E.4_K4.3_C4.2_[C-2A]_H4.3_A4.1_F4.1_T4.2_[G10C]_[T11G] (ssRNA)
RNA: B4 RNA with A29U, U39C, C40G
B13: Id_ii_S2_P4E.4_K4.3_C4.2_[C-2A]_[T-1A]_H4.3_A4.1_F4.1_T4.2_[G10A] (ssRNA)
RNA: B4 RNA with U39A, C40U
B14: Id_ii_S2_P4E.4_K4.3_C4.2_[T-1A]_H4.3_A4.1_F4.1_T4.2_[G10C] (ssRNA)
RNA: B4 RNA with A28C, U39C, C40U
B15: Id_ii_S2_P4E.4_K4.3_C4.2_[C-2A]_H4.3_A4.1_F4.1_T4.2_[G10A]_[T11C] (ssRNA)
RNA: B4 RNA with A29U, U39A
B16: Id_ii_S2_P4E.4_K4.3_C4.2_[T-1C]_H4.3_A4.1_F4.1_T4.2 (ssRNA)
RNA: B4 RNA with A28C, A29C, U39G, C40U
B17: Id_ii_S2_P4E.4_K4.3_C4.2_[T-1G]_H4.3_A4.1_F4.1_T4.2_[G10T] (ssRNA)
RNA: B4 RNA with A28C, A29G, C40U
B18: Id_ii_S2_P4E.4_K4.3_C4.2_[T-1A]_H4.3_A4.1_F4.1_T4.2_[G10C]_[T11C] (ssRNA)
RNA: B4 RNA with A28C, U39C
B19: Id_ii_S2_P4E.4_K4.3_C4.2_[C-2A]_H4.3_A4.1_F4.1_T4.2_[G10C]_[T11A] (ssRNA)
RNA: B4 RNA with A29U, U39C, C40A
B20: Id_ii_S2_P4E.4_K4.3_C4.2_H4.3_A4.1_F4.1_T4.2_[G10A] (ssRNA)
RNA: B4 RNA with A28C, A29U, U39A, C40U
B21: Id_ii_S2_P4E.4_K4.3_C4.2_[T-1G]_H4.3_A4.1_F4.1_T4.2_[G10T]_[T11C] (ssRNA)
RNA: B4 RNA with A28C, A29G
B22: Id_ii_S2_P4E.4_K4.3_C4.2_[C-2A]_H4.3_A4.1_F4.1_T4.2_[G10C] (ssRNA)
RNA: B4 RNA with A29U, U39C, C40U
B23: Id_ii_S2_P4E.4_K4.3_C4.2_H4.3_A4.1_F4.1_T4.2_[G10T] (ssRNA)
RNA: B4 RNA with A28C, A29U, C40U
B24: Id_ii_S2_P4E.4_K4.3_C4.2_[T-1C]_H4.3_A4.1_F4.1_T4.2_[G10A]_[T11A] (ssRNA)
RNA: B4 RNA with A28C, A29C, U39A, C40A
B25: Id_ii_S2_P4E.4_K4.3_C4.2_[T-1C]_H4.3_A4.1_F4.1_T4.2_[G10A] (ssRNA)
RNA: B4 RNA with A28C, A29C, U39A, C40U
B26: Id_ii_S2_P4E.4_K4.3_C4.2_[T-1C]_H4.3_A4.1_F4.1_T4.2_[G10T] (ssRNA)
RNA: B4 RNA with A28C, A29C, C40U
B27: Id_ii_S2_P4E.4_K4.3_C4.2_[T-1G]_H4.3_A4.1_F4.1_T4.2_[G10A]_[T11A] (ssRNA)
RNA: B4 RNA with A28C, A29G, U39A, C40A
B28: Id_ii_S2_P4E.4_K4.3_C4.2_[T-1G]_H4.3_A4.1_F4.1_T4.2_[G10C] (ssRNA)
RNA: B4 RNA with A28C, A29G, U39C, C40U
B29: Id_ii_S2_P4E.4_K4.3_C4.2_[C-2A]_H4.3_A4.1_F4.1_T4.2_[G10T]_[T11C] (ssRNA)
RNA: B4 RNA with A29U
B30: Id_ii_S2_P4E.4_K4.3_C4.2_[T-1A]_H4.3_A4.1_F4.1_T4.2_[G10T]_[T11A] (ssRNA)
RNA: B4 RNA with A28C, C40A
B31: Id_ii_S2_P4E.4_K4.3_C4.2_[T-1C]_H4.3_A4.1_F4.1_T4.2_[G10T]_[T11A] (ssRNA)
RNA: B4 RNA with A28C, A29C, C40A
B32: Id_ii_S2_P4E.4_K4.3_C4.2_[T-1A]_H4.3_A4.1_F4.1_T4.2 (ssRNA)
RNA: B4 RNA with A28C, U39G, C40U
B33: Id_ii_S2_P4E.4_K4.3_C4.2_[T-1C]_H4.3_A4.1_F4.1_T4.2_[G10C]_[T11C] (ssRNA)
RNA: B4 RNA with A28C, A29C, U39C
B34: Id_ii_S2_P4E.4_K4.3_C4.2_H4.3_A4.1_F4.1_T4.2_[G10T]_[T11A] (ssRNA)
RNA: B4 RNA with A28C, A29U, C40A
B35: Id_ii_S2_P4E.4_K4.3_C4.2_[T-1A]_H4.3_A4.1_F4.1_T4.2_[G10C]_[T11A] (ssRNA)
RNA: B4 RNA with A28C, U39C, C40A
B36: Id_ii_S2_P4E.4_K4.3_C4.2_H4.3_A4.1_F4.1_T4.2_[G10C]_[T11C] (ssRNA)
RNA: B4 RNA with A28C, A29U, U39C
B37: Id_ii_S2_P4E.4_K4.3_C4.2_H4.3_A4.1_F4.1_T4.2 (ssRNA)
RNA: B4 RNA with A28C, A29U, U39G, C40U
B38: Id_ii_S2_P4E.4_K4.3_C4.2_H4.3_A4.1_F4.1_T4.2_[G10C]_[T11G] (ssRNA)
RNA: B4 RNA with A28C, A29U, U39C, C40G
B39: Id_ii_S2_P4E.4_K4.3_C4.2_[T-1G]_H4.3_A4.1_F4.1_T4.2_[G10A] (ssRNA)
RNA: B4 RNA with A28C, A29G, U39A, C40U
B40: Id_ii_S2_P4E.4_K4.3_C4.2_[T-1A]_H4.3_A4.1_F4.1_T4.2_[G10A] (ssRNA)
RNA: B4 RNA with A28C, U39A, C40U

What follows are binders tested against T1, PUF4 RNA-binding domain (assay: Mg; RNA-MaP; 20 mM Na-HEPES pH 7.4, 30 mM KOAc, 0.75 mM MgCl2, 0.1% Tween-20, 5% glycerol, 0.1 mg/mL BSA, 2 mM DTT; 25 C; 0.0125-409.6 nM protein). Details: tags: N-His6-TEV cleaved; C-SNAP kept, Cy3B-labelled; label: tethered on chip by stalled RNA polymerase.

| Binder | Kd [nM] |
| --- | --- |
| UCUCUUUGUAAUAAUAUCUCUU (ssRNA) [Ib_S1_P5E.1_K5.1_C5.1_H5.1_A5.1_[T5A]_F5.1_[T8A]_T5.1] | 17.8 |
| UCUCUUUGUACUAAUAUCUCUU (ssRNA) [Ic_S1_P5E.1_K5.1_C5.1_H5.1_A5.1_[T5C]_F5.1_[T8A]_T5.1] | 12.5 |
| UCUCUUUGUACUACUAUCUCUU (ssRNA) [Ib_S1_P5E.1_K5.1_C5.1_H5.1_A5.1_[T5C]_F5.1_[T8C]_T5.1] | 10.9 |
| UCUCUUUGUAAUACUAUCUCUU (ssRNA) [Ib_S1_P5E.1_K5.1_C5.1_H5.1_A5.1_[T5A]_F5.1_[T8C]_T5.1] | 10.3 |
| B1 | 25.4 |
| B2 | 3.35 |
| B3 | 7.06 |
| B4 | > 2300 |
| B5 | 1620 |
| B6 | 471 |
| B7 | 10.8 |
| B8 | 2240 |
| B9 | > 2300 |
| B10 | 12.3 |
| B11 | > 2300 |
| B12 | 47.6 |
| B13 | > 2300 |
| B14 | > 2300 |
| B15 | 9.57 |
| B16 | > 2300 |
| B17 | > 2300 |
| B18 | > 2300 |

| Binder | Kd [nM] |
| --- | --- |
| B19 | 11.4 |
| B20 | 498 |
| B21 | > 2300 |
| B22 | 9.11 |
| B23 | 528 |
| B24 | > 2300 |
| B25 | > 2300 |
| B26 | 2050 |
| B27 | > 2300 |
| B28 | > 2300 |
| B29 | 10.3 |
| B30 | 748 |
| B31 | 594 |
| B32 | > 2300 |
| B33 | > 2300 |
| B34 | 459 |
| B35 | > 2300 |
| B36 | 563 |
| B37 | > 2300 |
| B38 | > 2300 |
| B39 | > 2300 |
| B40 | > 2300 |

Source: PMC9352680, “A comprehensive thermodynamic model for RNA binding by the Saccharomyces cerevisiae Pumilio protein PUF4”
